Data on one substance can be found in article PMC7293203.

The experiment addresses the activated zmTrpA variants (Zea mays). Kind of experiment: activity titration.

Sequence of tryptophan synthase β-subunit TrpB1 from Zea mays (P43283 whole entry): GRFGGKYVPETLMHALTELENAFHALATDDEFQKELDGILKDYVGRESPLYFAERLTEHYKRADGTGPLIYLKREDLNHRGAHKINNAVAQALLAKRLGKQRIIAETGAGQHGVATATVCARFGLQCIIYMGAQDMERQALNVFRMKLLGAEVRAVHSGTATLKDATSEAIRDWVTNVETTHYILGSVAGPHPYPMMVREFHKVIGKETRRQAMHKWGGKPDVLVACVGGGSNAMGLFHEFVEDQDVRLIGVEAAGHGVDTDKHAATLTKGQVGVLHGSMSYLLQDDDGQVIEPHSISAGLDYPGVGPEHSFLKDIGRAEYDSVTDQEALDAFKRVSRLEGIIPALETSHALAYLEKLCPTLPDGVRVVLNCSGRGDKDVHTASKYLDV

Broadly, the Kd is the constant that tells how readily two partners part at equilibrium. The substance “tryptophan synthase β-subunit TrpB1 from Zea mays (from UniProt P43283 1-389) (enzyme)” registered a Kd of 300 to 700 nM.
